Measurements as given in patent US20130136735A1 (NKT THERAPEUTICS, published 2013).
Blank lines part the entries; values can stand above or below the binder they belong to.

What was measured:
[1] = biological target: T1, FcγRIII (human); assay: in vitro binding experiments, afucosylated against fucosylated IgG1; reference not named
T1 construct: also called Fc-gamma-RIII

[2] = biological target: T2, recombinant soluble human iTCR (Hu-siTCR) (human); assay: SPR (BIAcore)
T2 construct: Bought recombinant soluble heterodimer, coated on nickel (HIS-Select) plates; also called recombinant TCR heterodimer (Precision Antibody); purified TCR heterodimer

[3] = biological target: T2, recombinant soluble human iTCR …; assay: ELISA using Hu-siTCR
[4] = biological target: T3, human FcγRI (human, UniProt P12314 16-288, limits assumed); assay: summary of Example 2
[5] = biological target: T2, recombinant soluble human iTCR …; assay: competition ELISA on plate-bound recombinant TCR heterodimer; competitor biotinylated chimeric 6B11 IgG1; IC50 of test divided by IC50 of reference
[6] = biological target: T3, human FcγRI; assay: ELISA / BIAcore, not said which
[7] = biological target: T3, human FcγRI; assay: ELISA
[8] = biological target: complement component C1q (human, UniProt P02745 23-245; P02746 28-253; P02747 29-245); assay: ELISA
complement component C1q, sequence (P02745 23-245 limits assumed, chain 1 of 3): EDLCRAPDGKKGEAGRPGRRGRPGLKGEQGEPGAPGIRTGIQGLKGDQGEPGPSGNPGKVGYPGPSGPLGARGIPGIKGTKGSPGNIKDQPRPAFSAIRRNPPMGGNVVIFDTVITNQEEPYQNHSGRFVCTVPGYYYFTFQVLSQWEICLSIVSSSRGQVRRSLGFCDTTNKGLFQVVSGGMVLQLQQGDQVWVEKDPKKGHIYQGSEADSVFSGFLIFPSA
complement component C1q, sequence (P02746 28-253 limits assumed, chain 2 of 3): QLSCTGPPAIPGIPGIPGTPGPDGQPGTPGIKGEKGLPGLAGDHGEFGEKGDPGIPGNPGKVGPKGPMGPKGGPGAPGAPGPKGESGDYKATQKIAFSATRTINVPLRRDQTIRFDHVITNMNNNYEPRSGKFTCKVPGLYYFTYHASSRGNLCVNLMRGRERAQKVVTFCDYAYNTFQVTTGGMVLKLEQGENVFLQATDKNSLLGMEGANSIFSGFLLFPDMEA
complement component C1q, sequence (P02747 29-245 limits assumed, chain 3 of 3): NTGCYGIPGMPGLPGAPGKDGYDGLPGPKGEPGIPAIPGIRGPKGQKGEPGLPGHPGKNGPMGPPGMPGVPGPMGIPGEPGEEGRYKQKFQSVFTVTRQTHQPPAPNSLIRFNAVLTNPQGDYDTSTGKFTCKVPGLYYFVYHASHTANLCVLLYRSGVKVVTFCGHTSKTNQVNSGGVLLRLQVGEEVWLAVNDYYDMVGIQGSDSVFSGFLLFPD

T3 sequence (P12314 16-288 limits assumed): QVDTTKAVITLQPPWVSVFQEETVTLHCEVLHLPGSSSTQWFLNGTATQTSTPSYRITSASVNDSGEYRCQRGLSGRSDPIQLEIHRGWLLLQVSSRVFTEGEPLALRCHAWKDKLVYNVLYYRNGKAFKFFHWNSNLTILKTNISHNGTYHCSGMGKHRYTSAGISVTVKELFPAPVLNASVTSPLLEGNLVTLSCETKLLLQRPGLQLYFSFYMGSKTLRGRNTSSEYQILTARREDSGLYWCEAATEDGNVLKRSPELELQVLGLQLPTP
T1 sequence (P08637 17-208): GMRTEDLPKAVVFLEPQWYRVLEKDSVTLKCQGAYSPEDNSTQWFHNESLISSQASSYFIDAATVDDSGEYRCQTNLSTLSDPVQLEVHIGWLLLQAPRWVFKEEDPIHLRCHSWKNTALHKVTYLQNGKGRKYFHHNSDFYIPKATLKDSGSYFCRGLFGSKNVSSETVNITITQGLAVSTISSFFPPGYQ

B1: NKTT219 (antibody, human IgG1)
heavy: not shown
VL: DIVMTQSPSSLSASVGDRVTITCKASQDVSTAVAWYQQKPGQAPRLLIYWASTRHTGVPSRFSGSGSGTDFTLTISSLQPEDFALYYCQQHYSTPWTFGQGTKLEIK
modifications: non-fucosylated (afucosylated) carbohydrate in the Fc portion
notes: also called ADCC-enhanced humanized IgG1
fold improvement of binding [1]: ≤ 100 fold

B3: NKTT320 (antibody, human IgG4 S228P, kappa)
heavy: not shown
light: DIQMTQSPSSLSASVGDRVTITCKASQDVSTAVAWYQQKPGQAPRLLIYWASTRHTGVPSRFSGSGSGTDFTLTISSLQPEDFALYYCQQHYSTPWTFGQGTKLEIKRTVAAPSVFIFPPSDEQLKSGTASVVCLLNNFYPREAKVQWKVDNALQSGNSQESVTEQDSKDSTYSLSSTLTLSKADYEKHKVYACEVTHQGLSSPVTKSFNRGEC
notes: also called modified IgG4 anti-iNKT mAb
binding result [6]: no binding

Continued, values first:

Kd [2]: ~60 nM
IC50 [3]: 0.2 µg/mL
binding result [4]: binds
Relative IC50 [5]: 0.212 ratio to chimeric 6B11 IgG1
B2: NKTT120 (antibody, human IgG1, kappa)
heavy: not shown
light: DIQMTQSPSSLSASVGDRVTITCKASQDVSTAVAWYQQKPGQAPRLLIYWASTRHTGVPSRFSGSGSGTDFTLTISSLQPEDFALYYCQQHYSTPWTFGQGTKLEIKRTVAAPSVFIFPPSDEQLKSGTASVVCLLNNFYPREAKVQWKVDNALQSGNSQESVTEQDSKDSTYSLSSTLTLSKADYEKHKVYACEVTHQGLSSPVTKSFNRGEC
notes: Humanized IgG1 with VH4 and VK4; also called VH 4/VK4; VH 4/Vκ4

binding result [7]: binds
binding result [8]: binds
IC50 [3]: 1 µg/mL
B4: NKTT103 (6B11 chimeric IgG1 control antibody) (antibody)
heavy: not shown
light: DIVMTQSHKFMSTSVGDRVSITCKASQDVSTAVAWYQQKPGQSPKLLIYWASTRHTGVPDRFTGSGSGTDYTLTISSVQAEDLALYYCQQHYSTPWTFGGGTKLEIKRTVAAPSVFIFPPSDEQLKSGTASVVCLLNNFYPREAKVQWKVDNALQSGNSQESVTEQDSKDSTYSLSSTLTLSKADYEKHKVYACEVTHQGLSSPVTKSFNRGEC
notes: Murine 6B11 V regions on human IgG1; also called chimeric 6B11 IgG1; chimeric 6B11 mAb
